Source: patent publication CN114075291A (THE FIRST AFFILIATED HOSPITAL OF NAVAL MEDICAL UNIV OF …, dated 2022)

Target: T1, 人PSMA抗原 (前列腺特异性膜抗原, prostrate specific membrane antigen) (human, UniProt Q04609 1-750)
T1 construct: whole, on cells; it is treated here as the same protein; also called PSMA蛋白
Assay: FACS, scFv culture supernatant on 293T-PSMA cells, APC anti 6XHis secondary

T1 sequence (Q04609 whole entry): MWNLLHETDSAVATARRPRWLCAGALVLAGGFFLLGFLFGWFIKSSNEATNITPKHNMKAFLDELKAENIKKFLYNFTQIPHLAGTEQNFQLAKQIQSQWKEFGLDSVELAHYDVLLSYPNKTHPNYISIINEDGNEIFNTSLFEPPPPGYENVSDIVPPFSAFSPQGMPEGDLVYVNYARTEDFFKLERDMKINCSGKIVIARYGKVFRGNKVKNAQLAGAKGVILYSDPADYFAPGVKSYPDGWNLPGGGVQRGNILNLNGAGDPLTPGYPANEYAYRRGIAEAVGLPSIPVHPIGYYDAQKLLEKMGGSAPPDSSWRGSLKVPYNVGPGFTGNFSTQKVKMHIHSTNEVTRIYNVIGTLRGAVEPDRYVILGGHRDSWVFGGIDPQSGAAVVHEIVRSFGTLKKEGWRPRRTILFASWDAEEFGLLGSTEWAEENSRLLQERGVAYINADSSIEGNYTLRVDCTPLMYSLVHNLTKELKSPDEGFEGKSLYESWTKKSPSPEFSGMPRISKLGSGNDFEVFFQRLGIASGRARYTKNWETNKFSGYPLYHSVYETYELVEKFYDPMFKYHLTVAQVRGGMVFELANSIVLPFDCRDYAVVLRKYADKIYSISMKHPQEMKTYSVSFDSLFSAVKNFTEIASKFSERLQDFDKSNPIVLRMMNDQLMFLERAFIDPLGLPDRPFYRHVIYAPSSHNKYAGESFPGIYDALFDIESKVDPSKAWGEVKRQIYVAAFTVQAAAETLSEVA

B1: 抗PSMA单链抗体1 (scFv, V domains shown)
VH: EVQLVESGGGVVQPGRSLRLSCAASGFTFSSYAMHWVRQAPGKGLEWVAVISYDGSNKYYADSVKGRFTISRDNSKNTLYLQMNSLRAEDTAVYYCARDYPLDDILTFPRVGTLDYWGQGTTVTVSS
VL: EIVLTQSPLSLPVTPGEPASISCRSSQSLLHSNGYNYLGWYLQKPGQSPQLLIYLGSNRASGVPDRFSGSGSGTDFTLKISRVEAEDVGVYYCMQALQTGFTFGPGTKVEIK
notes: Soluble scFv from a fully human phage library, made in E. coli TG1 and detected with APC anti 6XHis, so it carries a His tag; also called 抗体HTS0101; HTS0101
binding result: binds
